From the supplement of paper PMC5998384

What was measured:
[1] = tested on: HeLa Kyoto; experiment: solubility in G1/S (NP-40 vs SDS abundance) (log2 ratio); higher = more soluble; conditions: cell cycle stage: G1/S
[2] = tested on: HeLa Kyoto; experiment: solubility change mitosis vs G1/S (difference of NP-40 vs SDS log2 ratios) (log2 ratio difference); higher = more soluble in mitosis
[3] = tested on: HeLa Kyoto; experiment: thermal stability score vs G1/S (z-score of summed log2 fold changes over temperatures); higher = more thermally stable than in G1/S
[4] = cell cycle stage: early G1 (4.5 h after nocodazole release)
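Wherever solubility change mitosis vs G1/S (difference of NP-40 vs SDS log2 ratios) is given: synchronized HeLa Kyoto cells (double thymidine block for G1/S, nocodazole release for mitosis), protein amounts in NP-40 versus SDS lysates quantified by mass spectrometry, three biological replicates.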
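Wherever solubility in G1/S (NP-40 vs SDS abundance) is given: HeLa Kyoto cells arrested at G1/S by double thymidine block, proteins quantified by TMT10plex mass spectrometry in mild NP-40 versus SDS extracts, three biological replicates.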
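Wherever thermal stability score vs G1/S (z-score of summed log2 fold changes over temperatures) is given: synchronized HeLa Kyoto cells, proteins quantified by TMT10plex mass spectrometry, three biological replicates, mitosis taken 0.5 h after nocodazole release, G1/S directly after double thymidine block.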

## MAASKTQGAVARMQEDRDGSCSTVGGVGYGDSKDCILEPLSLPESPGGTTTLEGSPSVPCIFCEEHFPVAEQDKLLKHMIIEHKIVIADVKLVADFQRYILYWRKRFTEQPITDFCSVIRINSTAPFEEQENYFLLCDVLPEDRILREELQKQRLREILEQQQQERNDTNFHGVCMFCNEEFLGNRSVILNHMAREHAFNIGLPDNIVNCNEFLCTLQKKLDNLQCLYCEKTFRDKNTLKDHMRKKQHRKINPKNREYDRFYVINYLELGKSWEEVQLEDDRELLDHQEDDWSDWEEHPASAVCLFCEKQAETIEKLYVHMEDAHEFDLLKIKSELGLNFYQQVKLVNFIRRQVHQCRCYGCHVKFKSKADLRTHMEETKHTSLLPDRKTWDQLEYYFPTYENDTLLCTLSDSESDLTAQEQNENVPIISEDTSKLYALKQSSILNQLLL [ZNF277]
[1]
  solubility in G1/S (log2): -0.685
[2]
  solubility change mitosis (log2): 0.173
[3]; [4]
  thermal stability score: 0.293
[3]; cell cycle stage: mitosis
  thermal stability score: 1.38

## MAATAVAAAVAGTESAQGPPGPAASLELWLNKATDPSMSEQDWSAIQNFCEQVNTDPNGPTHAPWLLAHKIQSPQEKEALYALTVLEMCMNHCGEKFHSEVAKFRFLNELIKVLSPKYLGSWATGKVKGRVIEILFSWTVWFPEDIKIRDAYQMLKKQGIIKQDPKLPVDKILPPPSPWPKSSIFDADEEKSKLLTRLLKSNHPEDLQAANRLIKNLVKEEQEKSEKVSKRVSAVEEVRSHVKVLQEMLSMYRRPGQAPPDQEALQVVYERCEKLRPTLFRLASDTTDDDDALAEILQANDLLTQGVLLYKQVMEGRVTFGNRVTSSLGDIPVSRVFQNPAGCMKTCPLIDLEVDNGPAQMGTVVPSLLHQDLAALGISDAPVTGMVSGQNCCEEKRNPSSSTLPGGGVQNPSADRNLLDLLSAQPAPCPLNYVSQKSVPKEVPPGTKSSPGWSWEAGPLAPSPSSQNTPLAQVFVPLESVKPSSLPPLIVYDRNGFRILLHFSQTGAPGHPEVQVLLLTMMSTAPQPVWDIMFQVAVPKSMRVKLQPASSSKLPAFSPLMPPAVISQMLLLDNPHKEPIRLRYKLTFNQGGQPFSEVGEVKDFPDLAVLGAA [GGA2]
[1]
  solubility in G1/S (log2): 0.448
[2]
  solubility change mitosis (log2): -0.32
[3]; [4]
  thermal stability score: 0.693
[3]; cell cycle stage: mitosis
  thermal stability score: 1.05

## MAAVAAEAAATAASPGEGGAGEAEPEMEPIPGSEAGTDPLPVTATEASVPDGETDGQQSAPQADEPPLPPPPPPPGELARSPEAVGPELEAEEKLSVRVAESAAAAPQGGPELPPSPASPPEQPPAPEEREEPPLPQPVAPALVPPAGGDSTVSQLIPGSEVRVTLDHIIEDALVVSFRFGEKLFSGVLMDLSKRFGPHGIPVTVFPKREYKDKPEAMPLQSNTFQEGTEVKCEANGAVPDDPSPVPHPELSLAESLWTSKPPPLFHEGAPYPPPLFIRDTYNQSIPQPPPRKIKRPKRKMYREEPTSIMNAIKLRPRQVLCDKCKNSVVAEKKEIRKGSSATDSSKYEDKKRRNESVTTVNKKLKTDHKVDGKNQNESQKRNAVVKVSNIAHSRGRVVKVSAQANTSKAQLSTKKVLQSKNMDHAKAREVLKIAKEKAQKKQNETSTSKNAHSKVHFTRRYQNPSSGSLPPRVRLKPQRYRNEENDSSLKTGLEKMRSGKMAPKPQSRCTSTRSAGEAPSENQSPSKGPEEASSEVQDTNEVHVPGDQDEPQTLGKKGSKNNISVYMTLNQKKSDSSSASVCSIDSTDDLKSSNSECSSSESFDFPPGSMHAPSTSSTSSSSKEEKKLSNSLKMKVFSKNVSKCVTPDGRTICVGDIVWAKIYGFPWWPARILTITVSRKDNGLLVRQEARISWFGSPTTSFLALSQLSPFLENFQSRFNKKRKGLYRKAITEAAKAAKQLTPEVRALLTQFET [PWWP2A]
[1]
  solubility in G1/S (log2): -0.7
[2]
  solubility change mitosis (log2): 0.43
[3]; [4]
  thermal stability score: 1.31
[3]; cell cycle stage: mitosis
  thermal stability score: 1.07

## MAAVDSDVESLPRGGFRCCLCHVTTANRPSLDAHLGGRKHRHLVELRAARKAQGLRSVFVSGFPRDVDSAQLSEYFLAFGPVASVVMDKDKGVFAIVEMGDVGAREAVLSQSQHSLGGHRLRVRPREQKEFQSPASKSPKGAAPDSHQLAKALAEAADVGAQMIKLVGLRELSEAERQLRSLVVALMQEVFTEFFPGCVVHPFGSSINSFDVHGCDLDLFLDLGDLEEPQPVPKAPESPSLDSALASPLDPQALACTPASPPDSQPPASPQDSEALDFETPSSSLAPQTPDSALASETLASPQSLPPASPLLEDREEGDLGKASELAETPKEEKAEGAAMLELVGSILRGCVPGVYRVQTVPSARRPVVKFCHRPSGLHGDVSLSNRLALHNSRFLSLCSELDGRVRPLVYTLRCWAQGRGLSGSGPLLSNYALTLLVIYFLQTRDPPVLPTVSQLTQKAGEGEQVEVDGWDCSFPRDASRLEPSINVEPLSSLLAQFFSCVSCWDLRGSLLSLREGQALPVAGGLPSNLWEGLRLGPLNLQDPFDLSHNVAANVTSRVAGRLQNCCRAAANYCRSLQYQRRSSRGRDWGLLPLLQPSSPSSLLSATPIPLPLAPFTQLTAALVQVFREALGCHIEQATKRTRSEGGGTGESSQGGTSKRLKVDGQKNCCEEGKEEQQGCAGDGGEDRVEEMVIEVGEMVQDWAMQSPGQPGDLPLTTGKHGAPGEEGQPSHAALAERGPKGHEAAQEWSQGEAGKGASLPSSASWRCALWHRVWQGRRRARRRLQQQTKEGAGGGAGTRAGWLATEAQVTQELKGLSGGEERPETEPLLSFVASVSPADRMLTVTPLQDPQGLFPDLHHFLQVFLPQAIRHLK [TUT1]
[1]
  solubility in G1/S (log2): -0.00805
[2]
  solubility change mitosis (log2): 0.00387
[3]; [4]
  thermal stability score: 0.3
[3]; cell cycle stage: mitosis
  thermal stability score: 1.52

## MAAVELEWIPETLYNTAISAVVDNYIRSRRDIRSLPENIQFDVYYKLYQQGRLCQLGSEFCELEVFAKVLRALDKRHLLHHCFQALMDHGVKVASVLAYSFSRRCSYIAESDAAVKEKAIQVGFVLGGFLSDAGWYSDAEKVFLSCLQLCTLHDEMLHWFRAVECCVRLLHVRNGNCKYHLGEETFKLAQTYMDKLSKHGQQANKAALYGELCALLFAKSHYDEAYKWCIEAMKEITAGLPVKVVVDVLRQASKACVVKREFKKAEQLIKHAVYLARDHFGSKHPKYSDTLLDYGFYLLNVDNICQSVAIYQAALDIRQSVFGGKNIHVATAHEDLAYSSYVHQYSSGKFDNALFHAERAIGIITHILPEDHLLLASSKRVKALILEEIAIDCHNKETEQRLLQEAHDLHLSSLQLAKKAFGEFNVQTAKHYGNLGRLYQSMRKFKEAEEMHIKAIQIKEQLLGQEDYEVALSVGHLASLYNYDMNQYENAEKLYLRSIAIGKKLFGEGYSGLEYDYRGLIKLYNSIGNYEKVFEYHNVLSNWNRLRDRQYSVTDALEDVSTSPQSTEEVVQSFLISQNVEGPSC [APPBP2]
[1]
  solubility in G1/S (log2): -0.17
[2]
  solubility change mitosis (log2): -0.168
[3]; [4]
  thermal stability score: -0.105
[3]; cell cycle stage: mitosis
  thermal stability score: -0.0209

## MAGAAEDARALFRAGVCAALEAWPALQIAVENGFGGVHSQEKAKWLGGAVEDYFMRNADLELDEVEDFLGELLTNEFDTVVEDGSLPQVSQQLQTMFHHFQRGDGAALREMASCITQRKCKVTATALKTARETDEDEDDVDSVEEMEVTATNDGAATDGVCPQPEPSDPDAQTIKEEDIVEDGWTIVRRKK [TSR2]
[1]
  solubility in G1/S (log2): 0.00907
[2]
  solubility change mitosis (log2): 0.0427
[3]; [4]
  thermal stability score: -0.881
[3]; cell cycle stage: mitosis
  thermal stability score: 0.659

## MAGAENWPGQQLELDEDEASCCRWGAQHAGARELAALYSPGKRLQEWCSVILCFSLIAHNLVHLLLLARWEDTPLVILGVVAGALIADFLSGLVHWGADTWGSVELPIVGKAFIRPFREHHIDPTAITRHDFIETNGDNCLVTLLPLLNMAYKFRTHSPEALEQLYPWECFVFCLIIFGTFTNQIHKWSHTYFGLPRWVTLLQDWHVILPRKHHRIHHVSPHETYFCITTGWLNYPLEKIGFWRRLEDLIQGLTGEKPRADDMKWAQKIK [TMEM189]
[1]
  solubility in G1/S (log2): -0.215
[2]
  solubility change mitosis (log2): 0.0319
[3]; [4]
  thermal stability score: -3.23
[3]; cell cycle stage: mitosis
  thermal stability score: -3.53

## MAGSYPEGAPAVLADKRQQFGSRFLRDPARVFHHNAWDNVEWSEEQAAAAERKVQENSIQRVCQEKQVDYEINAHKYWNDFYKIHENGFFKDRHWLFTEFPELAPSQNQNHLKDWFLENKSEVPECRNNEDGPGLIMEEQHKCSSKSLEHKTQTLPVEENVTQKISDLEICADEFPGSSATYRILEVGCGVGNTVFPILQTNNDPGLFVYCCDFSSTAIELVQTNSEYDPSRCFAFVHDLCDEEKSYPVPKGSLDIIILIFVLSAIVPDKMQKAINRLSRLLKPGGMMLLRDYGRYDMAQLRFKKGQCLSGNFYVRGDGTRVYFFTQEELDTLFTTAGLEKVQNLVDRRLQVNRGKQLTMYRVWIQCKYCKPLLSSTS [METTL2A]
[1]
  solubility in G1/S (log2): 0.185
[2]
  solubility change mitosis (log2): 0.0978
[3]; [4]
  thermal stability score: 0.497
[3]; cell cycle stage: mitosis
  thermal stability score: 0.608
